Five proteins from article doi:10.1101/567099 (bioRxiv, 2019) can be followed below.

Data set [1] concerns the molecule itself. The data set is described as follows: SEC. On the technique in general: In gel filtration, larger molecules generally elute earlier.
Data set [2] concerns the molecule itself. The data set is described as follows: negative-stain electron microscopy.

B1: MBP-TorsinA (human TorsinA residues 51-332, N-terminal MBP tag) (domain or fragment)
chain: GQKRSLSREALQKDLDDNLFGQHLAKKIILNAVFGFINNPKPKKPLTLSLHGWTGTGKNFVSKIIAENIYEGGLNSDYVHLFVATLHFPHASNITLYKDQLQLWIRGNVSACARSIFIFDEMDKMHAGLIDAIKPFLDYYDLVDGVSYQKAMFIFLSNAGAERITDVALDFWRSGKQREDIKLKDIEHALSVSVFNNKNSGFWHSSLIDRNLIDYFVPFLPLEYKHLKMCIRVEMQSRGYEIDEDIVSRVAEEMTFFPKEERVFSDKGCKTVFTKLDYYYDD
As to B1, the binding result in data set [1] was “binds”.

B2: TorsinA H140N (human, residues 51-332) (domain or fragment)
chain: GQKRSLSREALQKDLDDNLFGQHLAKKIILNAVFGFINNPKPKKPLTLSLHGWTGTGKNFVSKIIAENIYEGGLNSDYVHLFVATLHFPNASNITLYKDQLQLWIRGNVSACARSIFIFDEMDKMHAGLIDAIKPFLDYYDLVDGVSYQKAMFIFLSNAGAERITDVALDFWRSGKQREDIKLKDIEHALSVSVFNNKNSGFWHSSLIDRNLIDYFVPFLPLEYKHLKMCIRVEMQSRGYEIDEDIVSRVAEEMTFFPKEERVFSDKGCKTVFTKLDYYYDD
With B2, the binding result in data set [2] is given as “binds”.

B3: TorsinA K174A (human, residues 51-332) (domain or fragment)
chain: GQKRSLSREALQKDLDDNLFGQHLAKKIILNAVFGFINNPKPKKPLTLSLHGWTGTGKNFVSKIIAENIYEGGLNSDYVHLFVATLHFPHASNITLYKDQLQLWIRGNVSACARSIFIFDEMDAMHAGLIDAIKPFLDYYDLVDGVSYQKAMFIFLSNAGAERITDVALDFWRSGKQREDIKLKDIEHALSVSVFNNKNSGFWHSSLIDRNLIDYFVPFLPLEYKHLKMCIRVEMQSRGYEIDEDIVSRVAEEMTFFPKEERVFSDKGCKTVFTKLDYYYDD
In the case of B3, the binding result in data set [2] is on record as “binds”.

B4: TorsinA K174E (human, residues 51-332) (domain or fragment)
chain: GQKRSLSREALQKDLDDNLFGQHLAKKIILNAVFGFINNPKPKKPLTLSLHGWTGTGKNFVSKIIAENIYEGGLNSDYVHLFVATLHFPHASNITLYKDQLQLWIRGNVSACARSIFIFDEMDEMHAGLIDAIKPFLDYYDLVDGVSYQKAMFIFLSNAGAERITDVALDFWRSGKQREDIKLKDIEHALSVSVFNNKNSGFWHSSLIDRNLIDYFVPFLPLEYKHLKMCIRVEMQSRGYEIDEDIVSRVAEEMTFFPKEERVFSDKGCKTVFTKLDYYYDD
For B4, the binding result in data set [2] is listed as “binds”.

B5: TorsinA (human, residues 51-332) after cleavage of the MBP tag with 3C protease (domain or fragment)
chain: GQKRSLSREALQKDLDDNLFGQHLAKKIILNAVFGFINNPKPKKPLTLSLHGWTGTGKNFVSKIIAENIYEGGLNSDYVHLFVATLHFPHASNITLYKDQLQLWIRGNVSACARSIFIFDEMDKMHAGLIDAIKPFLDYYDLVDGVSYQKAMFIFLSNAGAERITDVALDFWRSGKQREDIKLKDIEHALSVSVFNNKNSGFWHSSLIDRNLIDYFVPFLPLEYKHLKMCIRVEMQSRGYEIDEDIVSRVAEEMTFFPKEERVFSDKGCKTVFTKLDYYYDD
For B5, the binding result in data set [2] is “binds”.
